Bridges are numbered along the chain shown (N, C = ends). Where no end group is shown, it is not given here.
How the values were obtained:
LRO4 [1] = assay: competitive phage ELISA, coated LRO4; competitor MDA-LDL 50 µg/mL
[2] = target: control isotype anti-KLH IgM Ab (C48-6; BD Bioscience-Pharmingen); assay: phage ELISA, coated control IgM
LRO4 [3] = assay: phage ELISA, coated LRO4

Binder | B/Bo (inhibition of binding to LR04) (LRO4 [1]) [B/Bo] | OD (binding of phages to control IgM) [2] [OD] | OD (binding of phages to LR04) (LRO4 [3]) [OD]
HRMTNNAMDVFMGGGS (peptide, not shown: large carriers) [phage clones M6, G10] | 0.2 | 0.03 | 1.56
ACNNSHMPLCGGGS (peptide, not shown: large carriers, disulfide 2-10; not fully specified) [phage clones Ca9, Cb3, Ca8, Ca10] | 0.04 | 0.2 | 0.9
EVMNNWTLASIMGGGS (peptide, not shown: large carriers) [phage clone M30] | 0.06 | 0.03 | 1.04
HSWSNYWGHQHAGGGS (peptide, not shown: large carriers) [phage clone A32] | 0.18 | 0.02 | 0.98
ASISNLTLSRFMGGGS (peptide, not shown: large carriers) [phage clone M15] | 0.15 | 0.04 | 1.34
DYTNSVSMRYLSGGGS (peptide, not shown: large carriers) [phage clone M36] | 0.07 | 0.01 | 1.47
GWGNKTPSQDVHGGGS (peptide, not shown: large carriers) [phage clone A39] | 0.19 | 0.05 | 1.19
ACNNSNMPLCGGGS (peptide, not shown: large carriers, disulfide 2-10; also: C-terminus fused to phage pIII) [phage clone Cb10] | 0.02 | 0.2 | 0.6
ACNNQNMPLCGGGS (peptide, not shown: large carriers, disulfide 2-10; also: C-terminus fused to phage pIII) [phage clone Cb9] | 0.02 | 0.01 | 0.7
ACDWAPHFTCGGGS (peptide, not shown: large carriers, disulfide 2-10; also: C-terminus fused to phage pIII) [phage clone Cb2] | 0.03 | 0.2 | 1
ACNNWNMPLCGGGS (peptide, not shown: large carriers, disulfide 2-10; also: C-terminus fused to phage pIII) [phage clones Ca1, Ca7] | 0.04 | 0.1 | 0.8
NSRTNNSQWTFQGGGS (peptide, not shown: large carriers) [phage clone A34] | 0.11 | 0.11 | 0.82
QSYTNDDVLRISGGGS (peptide, not shown: large carriers) [phage clone M19] | 0.25 | 0.03 | 1.67
ESWTNSWAMYFGGGGS (peptide, not shown: large carriers) [phage clone M2] | 0.2 | 0.03 | 1.17
ACNNSXMPLCGGGS (peptide, not shown: large carriers, disulfide 2-10; not fully specified; X: residue not identified in the source) [phage clone Ca6] | 0.04 | 0 | 0.7
HRMTNAMHHFMGGGGS (peptide, not shown: large carriers) [phage clone A38] | 0.1 | 0.21 | 0.64

Binder | B/Bo (inhibition of binding to LR04) (LRO4 [1]) [B/Bo] | OD (binding of phages to control IgM) [2] [OD] | OD (binding of phages to LR04) (LRO4 [3]) [OD]
HRLTNSEQAALPGGGS (peptide, not shown: large carriers) [phage clones M3, M5] | 0.1 | 0.03 | 1.56
ESWTNSWAHYFGGGGS (peptide, not shown: large carriers) [phage clones A36, B41, M35] | 0.14 | 0.03 | 1.16
HRISNYAMELHSGGGS (peptide, not shown: large carriers) [phage clone G4] | 0.1 | 0.04 | 1.45
ADPFSPTNRIPLGGGS (peptide, not shown: large carriers) [phage clone M7] | 0.1 | 0.03 | 1.37
TAVTNSMMERLWGGGS (peptide, not shown: large carriers) [phage clone M8] | 0.2 | 0.04 | 1.57
NSWTNASLSTFHGGGS (peptide, not shown: large carriers) [phage clone A40] | 0.1 | 0.04 | 0.89
HSLTNTQMTQLSGGGS (peptide, not shown: large carriers) [phage clone M31] | 0.4 | 0.03 | 1.35
ACQNSHMPLCGGGS (peptide, not shown: large carriers, disulfide 2-10; also: C-terminus fused to phage pIII) [phage clone Ca3] | 0.04 | 0.1 | 0.5
ACNNRNMPLCGGGS (peptide, not shown: large carriers, disulfide 2-10; also: C-terminus fused to phage pIII) [phage clones Ca59, Cb1] | 0.06 | 0.1 | 0.8
ACKNSXQPLCGGGS (peptide, not shown: large carriers, disulfide 2-10; not fully specified; X: residue not identified in the source) [phage clone Ca4] | 0.13 | 0.1 | 0.9
HSLSNIQMATLAGGGS (peptide, not shown: large carriers) [phage clones M10, G8] | 0.1 | 0.03 | 1.16
ACNNWKMPLCGGGS (peptide, not shown: large carriers, disulfide 2-10; also: C-terminus fused to phage pIII) [phage clone Cb4] | 0.02 | 0.1 | 0.6
QNMNNWTLASIMGGGS (peptide, not shown: large carriers) [phage clone A31] | 0.25 | 0.08 | 0.85
ACNNSKMRLCGGGS (peptide, not shown: large carriers, disulfide 2-10; also: C-terminus fused to phage pIII) [phage clone Ca2] | 0.12 | 0.2 | 0.8
HQLSNKDEQTPQGGGS (peptide, not shown: large carriers) [phage clone A33] | 0.14 | 0.05 | 0.63
ACNNYNMPLCGGGS (peptide, not shown: large carriers, disulfide 2-10; also: C-terminus fused to phage pIII) [phage clone Cb589] | 0.03 | 0.1 | 0.8
